Experimental findings from patent US20190309066A1 (ARCH ONCOLOGY, published 2019) are described below.

The assay addresses T1, human CD47 expressed on cells (human, UniProt Q08722 19-292).
T1 construct: also called hCD47; integrin-associated protein
As to the kind of experiment: flow cytometry on freshly isolated human RBCs, FITC-labelled donkey anti-human antibody, MFI. The method, then:
FIG. 7. Binding of VLX9 Humanized mAbs to Human RBCs. […] RBCs were incubated for 60 minutes at 37° C. with various concentrations of VLX9 mAbs, washed and incubated for 1 hr with FITC-labelled donkey anti-human antibody. Cells were washed and antibody binding measured using flow cytometry.
Binding activities of chimeric and humanized VLX4, VLX8, and VLX9 mAbs to human CD47 on hRBCs were also determined using flow cytometry.

T1 sequence (Q08722 other isoform, or with tags, fused parts or gaps limits assumed): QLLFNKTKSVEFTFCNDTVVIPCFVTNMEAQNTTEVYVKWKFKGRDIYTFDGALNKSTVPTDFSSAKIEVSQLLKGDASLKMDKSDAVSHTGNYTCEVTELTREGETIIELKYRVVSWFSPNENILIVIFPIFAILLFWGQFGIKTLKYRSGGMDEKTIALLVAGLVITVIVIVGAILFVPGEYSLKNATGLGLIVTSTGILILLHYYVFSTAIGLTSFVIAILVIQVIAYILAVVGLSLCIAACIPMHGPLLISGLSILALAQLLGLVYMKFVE

B1: VLX9 IgG2 (xi) (antibody)
heavy: QVQLQQFGAELAKPGASVQMSCKASGYTFTNYWIHWVKQRPGQGLEWIGYTDPRTDYTEYNQKFKDKATLAADRSSSTAYMRLSSLTSEDSAVYYCAGGGRVGLGYWGHGSSVTVSSASTKGPSVFPLAPCSRSTSESTAALGCLVKDYFPEPVTVSWNSGALTSGVHTFPAVLQSSGLYSLSSVVTVPSSNFGTQTYTCNVDHKPSNTKVDKTVERKCCVECPPCPAPPVAGPSVFLFPPKPKDTLMISRTPEVTCVVVDVSHEDPEVQFNWYVDGVEVHNAKTKPREEQFNSTFRVVSVLTVVHQDWLNGKEYKCKVSNKGLPAPIEKTISKTKGQPREPQVYTLPPSREEMTKNQVSLTCLVKGFYPSDIAVEWESNGQPENNYKTTPPMLDSDGSFFLYSKLTVDKSRWQQGNVFSCSVMHEALHNHYTQKSLSLSPGK
light: DVFMTQTPLSLPVSLGDQASISCRSSQNIVQSNGNTYLEWYLQKPGQSPKLLIYKVFHRFSGVPDRFSGSGSGTDFTLKISRVEAEDLGVYYCFQGSHVPWTFGGGTKVEIKRTVAAPSVFIFPPSDEQLKSGTASVVCLLNNFYPREAKVQWKVDNALQSGNSQESVTEQDSKDSTYSLSSTLTLSKADYEKHKVYACEVTHQGLSSPVTKSFNRGEC
notes: murine-human chimera; also called VLX9 IgG2 chimera (xi)
Consider B1, for which the “EC50 (read off the curve)” value was about 500 pM.
